Assay [1] has as its target T1, Human TROP2 Protein, His Tag (Acro Biosystems) (human, UniProt P09758 27-274).
T1 construct: not shown: His tag
T1 sequence (looked up): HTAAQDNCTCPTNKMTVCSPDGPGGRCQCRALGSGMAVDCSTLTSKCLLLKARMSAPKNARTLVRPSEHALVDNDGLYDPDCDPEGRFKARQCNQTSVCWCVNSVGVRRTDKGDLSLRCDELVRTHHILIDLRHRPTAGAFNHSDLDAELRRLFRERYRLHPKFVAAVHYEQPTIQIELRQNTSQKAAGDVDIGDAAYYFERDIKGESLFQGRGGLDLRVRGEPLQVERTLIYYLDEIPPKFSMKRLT
As to the kind of experiment: BLI (Octet) [1/2]. In general terms: In BLI a coated tip is dipped into the sample, and binding shifts an interference pattern.

In assay [2] the target is T2, Human TROP2 Protein, His Tag (Acro Biosystems) (human, UniProt P09758 27-274).
T2 construct: Soluble analyte of the Octet assay; also called TACSTD2; not shown: His tag
T2 sequence (looked up): T1 sequence (looked up)
In words: BLI (Octet).

Substitutions are numbered along the chain they refer to.

B1: MYT12299 (antibody, V domains shown)
VH: QVQLQQSGSELKKPGASVKVSCKASGYTFTNHGMNWVKQAPGQGLKWMGWINTYTGEPTYTDDFHGRFAFSLDTSVSTAYLQISSLKADDTAVYFCARGGFGSSYWYFDVWGQGSLVTVSS
VL: DIQLTQSPSSLSASVGDRVSITCKASQDVSIAVAWYQQKPGKAPKLLIYSASYRYTGVPDRFSGSGSGTDFTLTISSLQPEDFAVYYCQQHYITPLTFGAGTKVEIK
notes: sacituzumab VH 32, 65 -> H
Turning to B1, in assay [1], the binding result was “binds”.

B2: MYT13178 (antibody, V domains shown)
VH: B1 VH with H32Y, Y60H, H65K
VL: B1 VL with A51H
notes: Sacituzumab HC-LC pairing variant; IgG
With B2, the binding result in assay [2] is “binds”.

B3: MYT13175 (antibody, V domains shown)
VH: B1 VH with H32Y, H65K, G66H
VL: B1 VL with V33H
notes: as for B2
With B3, the binding result in assay [2] is listed as “binds”.

B4: MYT13188 (antibody, V domains shown)
VH: B1 VH with H32Y, D63H, H65K
VL: B1 VL with S52H
notes: as for B2
With B4, the binding result in assay [2] was “binds”.

B5: MYT13189 (antibody, V domains shown)
VH: B1 VH with H32Y, F64H, H65K
VL: B1 VL with S52H
notes: as for B2
As for B5, in assay [2], the binding result is recorded as “binds”.

B6: MYT13179 (antibody, V domains shown)
VH: B1 VH with H32Y, D62H, H65K
VL: B1 VL with A51H
notes: as for B2
Consider B6, for which the binding result in assay [2] was “binds”.

B7: MYT12311 (antibody, V domains shown)
VH: B1 VH with H32Y, Y60H, H65K, G66H
VL: B1 VL
notes: sacituzumab VH 60, 66 -> H
As for B7, the binding result in assay [1] is “binds”.

B8: MYT12303 (antibody, V domains shown)
VH: B1 VH with H32Y, G33H, D63H, H65K
VL: B1 VL
notes: sacituzumab VH 33, 63 -> H
In the case of B8, the binding result in assay [1] is on record as “binds”.

B9: MYT13184 (antibody, V domains shown)
VH: B1 VH with H65K
VL: B1 VL with S52H
notes: as for B2
With B9, the binding result in assay [2] is “binds”.

B10: MYT13180 (antibody, V domains shown)
VH: B1 VH with H32Y, D63H, H65K
VL: B1 VL with A51H
notes: as for B2
Regarding B10, the binding result in assay [2] is “binds”.

B11: MYT13170 (antibody, V domains shown)
VH: B1 VH with H32Y, Y60H, H65K
VL: B1 VL with V33H
notes: as for B2
Regarding B11, the binding result in assay [2] is “binds”.

B12: MYT12300 (antibody, V domains shown)
VH: B1 VH with H65K, G66H
VL: B1 VL
notes: sacituzumab VH 32, 66 -> H
B12: the binding result in assay [1] was “binds”.

B13: MYT13167 (antibody, V domains shown)
VH: B1 VH with H32Y, H65K, G66H
VL: B1 VL with S30H
notes: as for B2
As for B13, in assay [2], the binding result is reported as “binds”.

B14: MYT12312 (antibody, V domains shown)
VH: B1 VH with H32Y, D62H, D63H, H65K
VL: B1 VL
notes: sacituzumab VH 62, 63 -> H
As to B14, the binding result in assay [1] is “binds”.

B15: MYT12326 (antibody, V domains shown)
VH: B1 VH with H32Y, G33H, F64H, H65K, G66H
VL: B1 VL
notes: sacituzumab VH 33, 64, 66 -> H
As for B15, the binding result in assay [1] was “binds”.

B16: MYT13183 (antibody, V domains shown)
VH: B1 VH with H32Y, H65K, G66H
VL: B1 VL with A51H
notes: as for B2
With B16, the binding result in assay [2] is “binds”.

B17: MYT13185 (antibody, V domains shown)
VH: B1 VH with H32Y, G33H, H65K
VL: B1 VL with S52H
notes: as for B2
As for B17, in assay [2], the binding result is listed as “binds”.

B18: MYT13172 (antibody, V domains shown)
VH: B1 VH with H32Y, D63H, H65K
VL: B1 VL with V33H
notes: as for B2
Take B18: the binding result in assay [2] is reported as “binds”.

B19: MYT13166 (antibody, V domains shown)
VH: B1 VH with H32Y
VL: B1 VL with S30H
notes: as for B2
Consider B19, for which the binding result in assay [2] was “binds”.

B20: MYT12307 (antibody, V domains shown)
VH: B1 VH with H32Y, Y60H, D62H, H65K
VL: B1 VL
notes: sacituzumab VH 60, 62 -> H
As for B20, the binding result in assay [1] is on record as “binds”.

B21: MYT12314 (antibody, V domains shown)
VH: B1 VH with H32Y, D62H
VL: B1 VL
notes: sacituzumab VH 62, 65 -> H
For the molecule B21, in assay [1], the binding result is given as “binds”.

B22: MYT12316 (antibody, V domains shown)
VH: B1 VH with H32Y, D63H, F64H, H65K
VL: B1 VL
notes: sacituzumab VH 63, 64 -> H
In the case of B22, the binding result in assay [1] is given as “binds”.

B23: MYT12309 (antibody, V domains shown)
VH: B1 VH with H32Y, Y60H, F64H, H65K
VL: B1 VL
notes: sacituzumab VH 60, 64 -> H
With B23, the binding result in assay [1] is “binds”.

B24: MYT13186 (antibody, V domains shown)
VH: B1 VH with H32Y, Y60H, H65K
VL: B1 VL with S52H
notes: as for B2
Turning to B24, the binding result in assay [2] is listed as “binds”.

B25: MYT12325 (antibody, V domains shown)
VH: B1 VH with H32Y, G33H, F64H
VL: B1 VL
notes: sacituzumab VH 33, 64, 65 -> H
For the molecule B25, in assay [1], the binding result was “binds”.

B26: MYT12305 (antibody, V domains shown)
VH: B1 VH with H32Y, G33H
VL: B1 VL
notes: sacituzumab VH 33, 65 -> H
On to B26, for which the binding result in assay [1] is on record as “binds”.

B27: MYT12308 (antibody, V domains shown)
VH: B1 VH with H32Y, Y60H, D63H, H65K
VL: B1 VL
notes: sacituzumab VH 60, 63 -> H
On to B27, for which the binding result in assay [1] is “binds”.

B28: MYT13182 (antibody, V domains shown)
VH: B1 VH with H32Y
VL: B1 VL with A51H
notes: as for B2
Regarding B28, the binding result in assay [2] was “binds”.

B29: MYT12324 (antibody, V domains shown)
VH: B1 VH with H32Y, G33H, Y60H, H65K, G66H
VL: B1 VL
notes: sacituzumab VH 33, 60, 66 -> H
For the molecule B29, the binding result in assay [1] is “binds”.

B30: MYT12315 (antibody, V domains shown)
VH: B1 VH with H32Y, D62H, H65K, G66H
VL: B1 VL
notes: sacituzumab VH 62, 66 -> H
Regarding B30, the binding result in assay [1] was “binds”.

B31: MYT13181 (antibody, V domains shown)
VH: B1 VH with H32Y, F64H, H65K
VL: B1 VL with A51H
notes: as for B2
For the molecule B31, the binding result in assay [2] is recorded as “binds”.

B32: MYT13168 (antibody, V domains shown)
VH: B1 VH with H65K
VL: B1 VL with V33H
notes: as for B2
Consider B32, for which the binding result in assay [2] is listed as “binds”.

B33: MYT13200 (antibody, V domains shown)
VH: B1 VH with H65K
VL: B1 VL with Q89H
notes: as for B2
B33: the binding result in assay [2] was “binds”.

B34: MYT13173 (antibody, V domains shown)
VH: B1 VH with H32Y, F64H, H65K
VL: B1 VL with V33H
notes: as for B2
As to B34, the binding result in assay [2] was “binds”.

B35: MYT13169 (antibody, V domains shown)
VH: B1 VH with H32Y, G33H, H65K
VL: B1 VL with V33H
notes: as for B2
Turning to B35, the binding result in assay [2] is listed as “binds”.

B36: MYT13174 (antibody, V domains shown)
VH: B1 VH with H32Y
VL: B1 VL with V33H
notes: as for B2
With B36, the binding result in assay [2] is listed as “binds”.

B37: MYT13177 (antibody, V domains shown)
VH: B1 VH with H32Y, G33H, H65K
VL: B1 VL with A51H
notes: as for B2
As to B37, the binding result in assay [2] is “binds”.

B38: MYT12301 (antibody, V domains shown)
VH: B1 VH with H32Y, G33H, Y60H, H65K
VL: B1 VL
notes: sacituzumab VH 33, 60 -> H
Turning to B38, in assay [1], the binding result is “binds”.

B39: MYT13171 (antibody, V domains shown)
VH: B1 VH with H32Y, D62H, H65K
VL: B1 VL with V33H
notes: as for B2
Regarding B39, the binding result in assay [2] was “binds”.

B40: MYT12313 (antibody, V domains shown)
VH: B1 VH with H32Y, D62H, F64H, H65K
VL: B1 VL
notes: sacituzumab VH 62, 64 -> H
Consider B40, for which the binding result in assay [1] is given as “binds”.

B41: MYT12304 (antibody, V domains shown)
VH: B1 VH with H32Y, G33H, F64H, H65K
VL: B1 VL
notes: sacituzumab VH 33, 64 -> H
In the case of B41, the binding result in assay [1] is given as “binds”.

These data come from patent US20260274985A1 (MYTHIC THERAPEUTICS, published 2026).
